Data: the domain aggregation screens of Martell et al. (2025)

assay: soluble fraction after stress (log2 fold change); higher = more stays soluble; pooled small domains, quantitative proteomics; conditions: stress: pH 4
Outline: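 Aggregation propensity is read out as the fold change in how much of each domain remains soluble after acid stress. The custom small-domain libraries were pooled, held at pH 4 and analysed with high-throughput quantitative proteomics. On the log2 scale used, higher values mean more of the domain stayed soluble.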

Compared with “HMEMTSREIIKRLEEDGWYHVKTTGDHYQMKHPTKPGKVTIVHPAKDLSIGTLRSIEKQSGVRL”, “HMEMVSMPGLTGSTLEFATKTLTENELKYEVVYIVDASAESGLIIRTYPTEGEMVSKKTSTIYLYIKE” is lower in “soluble fraction (log2)” value: ≥ 0.43 for the first, -0.481 for the second.

Compared with “HMENDGQFLRAEREKYGLTLTDIYEHTHIPIKKLKAYEMWEEEMPPRTRALLELYFDQVAFEYDS”, “HMENDPYEILGIARSASDDEIKAKYRALTRENHPDILMAKGVPQEFIDLANEKMAVINAAYDKIEKER” is higher in “soluble fraction (log2)” value: -0.556 for the first, 0.12 for the second.

Going from “HMENEDMTGDIRVIDYIRNVAEYIQTTKGQASASQMLDRFLFPPELQYTPLDKLSGGEQRRLYLLKVLMEA” to “HMENEFEAYSDGSSIQLNDPSKATYVVFDRQGRLLHLFQNHSLSSLSIERKNQILIITRETADGVSVKKIV”, the “soluble fraction (log2)” value rises from -0.575 to -0.167.

“HMENEIPVPELVGMSEADAAAKLASLGLERDTQREATADEESVGKVLRQEPTPGEYVDEGHKVTIWVGE” and “HMENFSTLFSRLKEERGLSNKQISSFTGAPIKEVKKWESGMGIPTEKRIVAALEGILGSEISKAI” are within 0.2 log units of each other in “soluble fraction (log2)” value: 0.22 for the first, 0.353 for the second.

Compared with “HMENHILIIDDDLMLLKTAEEILSDQYNVSVAKSGIQALNLLNKNIIPDLILLDIDMPQMDGYETL”, “HMENIIFDIGFHKGEDTLFYLLKGYRVIAVDADPDLINEWQNIFKKYIENGKLLLLNYVISDT” is lower in “soluble fraction (log2)” value: -0.554 for the first, -1.18 for the second.

Compared with “HMENISVESKMKLLLKSLKTRDFISLPELVLKGESKLAISVILVAALELNRKGYIEVVQAEQFGEIYFKNT”, “HMENKVLVITEEEKGKRLDVYLAAALEVSRSYAQQLIQGEDVVVNDKQVKANYRLSEGDVVQVQLD” is lower in “soluble fraction (log2)” value: 0.0399 for the first, -0.218 for the second.

Compared with “HMENLIEELTAKNKEYIHSVTKQLILVGKSDEEVKEILNDILPQIIEGQKSGIIARKLLGAPTEFVSQYQP”, “HMENLQLQQLVKGLPEKMQEIVILRFSQELTMREIADIVNLPMRTVQSQLRLALKILKKEMG” is higher in “soluble fraction (log2)” value: -0.317 for the first, 0.145 for the second.

First: HMENLSFNINSEEEGQRIDKYLSVMIEGKSRSFVQGLIEEKKVKANSKVIKSNYKLKKGDFIEVEVPEPV
Second: HMENLSGNDIKYLRKKYNLTQKELADALGLQKFGDRTIRRWEAEETHPSKLEQSSIQSFFNSLK
The “soluble fraction (log2)” value of the first is higher: 0.36 for the first, 0.111 for the second.

Compared with “HMENLTLVIGNKLKNIRNSRNLSLDDVAELTGVSKAMLGQIERGKSNPTVSTLWKISTGLRVSFSSFIDE”, “HMENLVPVVVATTNIEPRTQITDAMVKVEQIPALGRNESMLEDPALVVGGYATGKIYAGQSFIQPMVSK” is higher in “soluble fraction (log2)” value: -0.249 for the first, 0.192 for the second.

Compared with “HMENNIILNYVKDNLNITEKDAKDLIELLGSDYYHIKNETNKIAAFLDGQPYSFEKIKNLISIDKEY”, “HMENPLETYYSQWVSAIKREHPEASFVKDTDGKYYVEGLTKNRLAVIYENPHLVRLVNATTNLHVE” is higher in “soluble fraction (log2)” value: -0.644 for the first, 0.14 for the second.

First: HMENPVPVIITDQNFQPLLWKNVGVPTDTIFHELSPENQKKLENLMKTMVQMPLTDDGRISGYAYYSK
Second: HMENQFNDWSLTPSEKEVALFMLKGLSTQEIAAARNTKEKTVRQQASAVYAKSQLDGRYALAAWFFEDI
The “soluble fraction (log2)” value of the first is higher: 0.149 for the first, -1.04 for the second.

First: HMENQMIIYIDENDENKRLDSYLSEITPDYSRSKIQNFIKNGNVTVNDSNKKPSYLLKENDKISFELPQQ
Second: HMENSLLSESLAKIYIKTHRYERAYEILSRLSLAVPEKNAYFADQLRFLRKVMLAESFRKQHS
The “soluble fraction (log2)” value of the first is lower: -0.158 for the first, 0.22 for the second.

Going from “HMENTSPMTPEQSKALMAYLTKRHGDSREAYLSELSQFFGRPLSSSRELTKADVSEFLNAIN” to “HMENVVESIYNKMVESITNGQWAAGSKIPTENELAKTYQVSRSSVRQAISRLKALGLLESRQGSGTVIKK”, the “soluble fraction (log2)” value rises from -0.0703 to 0.178.

Compared with “HMENWMPNLVNQDKRLAINTLRELGFTEEAGNLVIREETSEDVTKDYVISTDPVAETDLADVEKVTLVVSS”, “HMENYIEQLTAKNSEYIHVVTRELVKIGKSDEEIKAILSDILPQIVAAQDQRVLAKDILGTPSEFTAKYAP” is higher in “soluble fraction (log2)” value: -0.219 for the first, 0.0161 for the second.

“HMEPDDLTVIKGIGPVAAKDLNEQGIITFAQLAKLSDKDVAKIDEHMPFSADQIKDWREQAKELAK” and “HMEPDEIVLDHRKRIENSDAIVLIAPIWNFRMPAILEGWIDKVLAPPWAFKFKKLFGNYGYPVGNLKG” are within 0.2 log units of each other in “soluble fraction (log2)” value: 0.0725 for the first, -0.121 for the second.

Going from “HMEPDTVVVPNFVGKVYASEIEGNEAYSDFTFVIKEGNDPEQDIGVVLKQTPNEGLEVKKGKEITLTINQ” to “HMEPEAKIDFILKAAQKRLGLYGYEKTTMQEIAADINMSKAALYYYFPDKESLFKAVVENEQEEYFH”, the “soluble fraction (log2)” value falls from -0.169 to -1.24.

Compared with “HMEPEDVIAMERYLASGAIKGIGVTLAGRIIKKFQKETFHIIEEEPERLSEVKGISEKLAREIYQQFTQK”, “HMEPERRHLEVPAEAEGERIDRFLASQLENLSRSRIQALIKAGYVRNRRGTIEDPGLRVKPGDAFVVDLPP” is higher in “soluble fraction (log2)” value: -0.187 for the first, 0.255 for the second.

Compared with “HMEPEVEITYFKPDERKAGGAYVTVTGAVIKVDDFERLITMQDGTKIPMDDILSIDGELFLS”, “HMEPGEVQVDGLRFIAQPQERNDFEVALEQFRAGNFAAARKSFAAFINTYKQSGYLPSARFW” is higher in “soluble fraction (log2)” value: -1.08 for the first, -0.152 for the second.

Compared with “HMEPLKLGDATGDGKINLQDVLEMQKHMAGILVLKGKFFTAADVNGNGKIELVDVLSVQKYLAGVTAEV”, “HMEPLVSKVFQVSYQKTADLVALIKSEDSKLLSARGTLISDERTSQIFVQDTPTRLERISMIVNGL” is lower in “soluble fraction (log2)” value: -0.0932 for the first, -0.895 for the second.
